This is an account of results in patent US6337206B1 (priority 1997, dated 2002).

For one experiment, the target named is rat GALR2 (UniProt O08726). Description: competition.
Experiment [1] addresses hGALR2 (UniProt O43603). Description: competition.
The next experiment addresses hGALR1* (human) (UniProt P47211). Description: competition.
The next experiment has as its target galanin receptors. The settings on record: hypothalamus, ventral hippocampus, basal forebrain, spinal cord, pancreas, pituitary; read-out: Kd of specific binding; cited from earlier work.
For experiment [2], the target named is T1, rat GALR1 (Rattus norvegicus, UniProt Q62805).
T1 sequence (Q62805 1-346): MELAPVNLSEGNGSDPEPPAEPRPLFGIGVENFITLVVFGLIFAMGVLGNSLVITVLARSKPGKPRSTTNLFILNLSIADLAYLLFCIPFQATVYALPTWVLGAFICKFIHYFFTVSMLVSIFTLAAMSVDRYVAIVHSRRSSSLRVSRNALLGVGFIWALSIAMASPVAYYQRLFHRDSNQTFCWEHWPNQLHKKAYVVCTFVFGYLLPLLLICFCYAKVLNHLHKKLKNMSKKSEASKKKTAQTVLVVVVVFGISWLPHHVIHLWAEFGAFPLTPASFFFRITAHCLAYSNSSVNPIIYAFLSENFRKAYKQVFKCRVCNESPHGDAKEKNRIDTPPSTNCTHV
Description: (§1) Membranes were prepared from transfected cells following dissociation in enzyme-free dissociation solution (Specialty Media, Lavallette, N.J.) by disruption in a Dounce homogenizer in ice-cold membrane buffer (10 mM Tris, pH 7.4, 10 mM PMSF, 10 μM phosphoramidon, and 40 μg/ml bacitracin). After a low speed (1100×g for 10 min. at 4° C.) and a high speed centrifugation (38,700×g for 15 min. at 4° C.), membranes were resuspended in buffer and protein concentration determined (Bio-Rad assay kit). […] Reactions were initiated by the addition of membranes and the incubation was allowed to proceed at room temperature for 1 hour. […] Incubations were terminated by rapid filtration through GF/C filters which had been presoaked with 0.1% polyethylamine using a TOMTEC (Orange, Conn.) cell harvester. The results were analyzed using the Prism software package (GraphPad, San Diego, Calif.).

Experiment [3] addresses T2, rat GALR2 (clone 27A) (Rattus norvegicus, UniProt O08726).
T2 sequence (O08726 1-372): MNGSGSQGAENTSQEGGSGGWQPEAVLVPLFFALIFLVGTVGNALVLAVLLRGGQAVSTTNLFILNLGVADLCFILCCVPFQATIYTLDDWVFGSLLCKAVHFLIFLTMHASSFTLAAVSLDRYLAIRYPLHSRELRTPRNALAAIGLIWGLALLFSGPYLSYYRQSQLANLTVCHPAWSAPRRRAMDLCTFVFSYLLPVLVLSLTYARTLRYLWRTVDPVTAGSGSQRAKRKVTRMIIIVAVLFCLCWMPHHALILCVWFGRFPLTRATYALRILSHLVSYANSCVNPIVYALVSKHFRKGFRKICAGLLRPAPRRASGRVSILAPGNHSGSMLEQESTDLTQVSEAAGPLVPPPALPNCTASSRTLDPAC
Description: Mammalian COS-7 cells were transfected by electroporation. COS-7 cells (1×10^7) were suspended in 0.85 ml of Ringers' buffer and 15 mg of the pCI.neo/27A clone was added to a 0.4 mm electroporation cuvette (Bio-Rad, Hercules, Calif.). Current was applied (960 μF, 260 V) using a Bio-Rad Electroporator device and the cells were transferred to a T-180 flask (Corning). Expression was allowed to proceed for 72 hrs.
as §1

The target in experiment [4] is T3, human GALR2 (Homo sapiens, UniProt O43603).
T3 construct: expressed in transfected cells; host or cells: 293-AEQ17 (aequorin-expressing 293 line)
T3 sequence (O43603 1-387): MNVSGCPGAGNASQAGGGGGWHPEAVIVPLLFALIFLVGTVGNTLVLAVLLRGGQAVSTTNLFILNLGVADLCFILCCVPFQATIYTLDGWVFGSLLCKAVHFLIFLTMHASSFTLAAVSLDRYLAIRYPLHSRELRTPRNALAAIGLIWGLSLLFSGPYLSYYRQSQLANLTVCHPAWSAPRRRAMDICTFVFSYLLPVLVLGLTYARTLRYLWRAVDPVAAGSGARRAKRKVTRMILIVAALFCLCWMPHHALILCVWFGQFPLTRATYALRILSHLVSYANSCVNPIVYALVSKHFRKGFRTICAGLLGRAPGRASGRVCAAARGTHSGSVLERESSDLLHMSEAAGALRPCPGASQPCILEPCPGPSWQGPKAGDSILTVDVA
Description: Aequorin bioluminescence assay in 293-AEQ17 cells, human GALR2. Format: cell-based. The settings on record: read-out: EC50, aequorin bioluminescence; human GALR2 in 293-AEQ17 cells.

For experiment [5], the target named is T4, rat GALR1 (rat, UniProt Q62805 1-346).
T4 sequence: T1 sequence (Q62805 1-346)
Description: competition of 125I-human galanin binding, membranes.

Experiment [6] addresses T5, rat GALR2 (clone 27A) (rat, UniProt O08726 1-372).
T5 construct: Full-length 372-amino-acid receptor expressed in transiently transfected COS-7 cells; also called pCI.neo/27A
T5 sequence: T2 sequence (O08726 1-372)
Description: competition of 125I-human galanin binding, COS-7 membranes.

The target of experiment [7] is hGALR2 (UniProt O43603). Description: cell-based or functional assay.
For experiment [8], the target named is T2, rat GALR2 (clone 27A). Description: biochemical.
Experiment [9] concerns the target T1, rat GALR1. Description: biochemical.
Experiment [10] deals with T6, human GALR2 (UniProt O43603 1-387).
T6 chain: T3 sequence (O43603 1-387)
Description: 125I-human galanin competition binding.

Experiment [11] has as its target T7, human GALR2 (human, UniProt O43603 1-387).
T7 sequence: T3 sequence (O43603 1-387)
Description: cell-based or functional assay.

The IC50 is the concentration at which inhibition is half-maximal. The low end stands for greater potency, the high end for weaker potency. In general, Kd refers to the equilibrium constant for the complex coming apart. In general, EC50 refers to the midpoint of the concentration-response curve.

Read-outs that look alike come from different tables or passages of the source. No end group written: not given here.

Sequence of hGALR1* (human) (P47211 whole entry): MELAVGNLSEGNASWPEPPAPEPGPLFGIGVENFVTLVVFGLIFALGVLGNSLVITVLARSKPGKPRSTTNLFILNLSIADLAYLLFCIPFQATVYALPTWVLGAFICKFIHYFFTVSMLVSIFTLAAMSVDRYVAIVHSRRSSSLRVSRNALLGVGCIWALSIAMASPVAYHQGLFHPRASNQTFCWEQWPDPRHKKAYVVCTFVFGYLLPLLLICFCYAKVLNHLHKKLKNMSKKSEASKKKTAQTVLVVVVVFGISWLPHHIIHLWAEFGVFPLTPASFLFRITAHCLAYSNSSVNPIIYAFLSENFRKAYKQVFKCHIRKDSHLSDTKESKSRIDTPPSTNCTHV

On to C7, for which the IC50 with rat GALR2 came out at 13.5 nM; in the experiment with hGALR2 [1] it was 40.5 nM; with hGALR1* (human) it was 6.3 nM.
Regarding M35, the IC50 is 5.6 nM in the experiment with hGALR2 [1] and 0.04 nM with hGALR1* (human).
With M40, the IC50 in the experiment with rat GALR2 is 1.8 nM; with hGALR2 [1], 9.5 nM; with hGALR1* (human), 0.48 nM.
With 125I-galanin, the Kd at galanin receptors is about 1 nM.
On to `CC[C@H](C)[C@H](NC(=O)[C@H](C)NC(=O)[C@H](Cc1c[nH]cn1)NC(=O)[C@@H]1CCCN1C(=O)CNC(=O)[C@H](CC(C)C)NC(=O)[C@H](CC(C)C)NC(=O)[C@H](Cc1ccc(O)cc1)NC(=O)CNC(=O)[C@H](C)NC(=O)[C@H](CO)NC(=O)[C@H](CC(N)=O)NC(=O)[C@H](CC(C)C)NC(=O)[C@@H](N)[C@@H](C)O)C(=O)N[C@@H](CC(=O)O)C(=O)N[C@@H](CC(N)=O)C(=O)N[C@@H](Cc1c[nH]cn1)C(=O)N[C@@H](CCCNC(=N)N)C(=O)N[C@@H](CO)C(=O)N[C@@H](Cc1ccccc1)C(=O)N[C@@H](CO)C(=O)N[C@@H](CC(=O)O)C(=O)N[C@@H](CCCCN)C(=O)N[C@@H](Cc1c[nH]cn1)C(=O)NCC(=O)N[C@@H](CC(C)C)C(=O)N[C@H](C(N)=O)[C@@H](C)O` [rat Gal (3-29)], for which the IC50 against rat GALR1 [2] and at rat GALR2 (clone 27A) [3] was over 1000 nM in each case. Besides, the EC50 on human GALR2 [4] is over 10000 nM.
The molecule galantide(M15) (peptide) gave an IC50 in the experiment with rat GALR1 [5] of 1 nM.
With M35 (peptide), the IC50 with rat GALR2 (clone 27A) [6] is 0.43 nM; with rat GALR1 [5] it was 0.9 nM. Moreover, the EC50, aequorin bioluminescence in 293-AEQ17 cells in the experiment with hGALR2 [7] came out at 44 nM.
With M40 (peptide), the results for the IC50 in the experiment with rat GALR2 (clone 27A) [6] and with rat GALR1 [5] were 1.9 nM and 0.01 nM, respectively. Besides, in the experiment with hGALR2 [7], the EC50, aequorin bioluminescence in 293-AEQ17 cells was 8.8 nM.
With `CC(C)C[C@H](NC(=O)[C@H](CC(C)C)NC(=O)[C@@H](Cc1c[nH]c2ccccc12)NC(=O)[C@H](Cc1ccccc1)NC(=O)[C@@H](Cc1c[nH]c2ccccc12)NC(=O)[C@H](CCC(N)=O)NC(=O)[C@H](CCC(N)=O)NC(=O)[C@@H]1CCCN1C(=O)[C@H](CCCCN)NC(=O)[C@@H]1CCCN1C(=O)[C@@H](CCCNC(=N)N)NC(=O)[C@@H]1CCCN1C(=O)CNC(=O)[C@H](CC(C)C)NC(=O)[C@H](CC(C)C)NC(=O)[C@H](Cc1ccc(O)cc1)NC(=O)CNC(=O)[C@H](C)NC(=O)[C@H](CO)NC(=O)[C@H](CC(N)=O)NC(=O)[C@H](CC(C)C)NC(=O)[C@@H](NC(=O)[C@H](Cc1c[nH]c2ccccc12)NC(=O)CN)[C@@H](C)O)C(N)=O` [C7], the IC50 was 23 ± 13 nM against rat GALR2 (clone 27A) [8] and 4.9 ± 3 nM on rat GALR1 [9].
In the experiment with human GALR2 [10], TLNSAGYLLGPHAIDNHRSFSDKHGLT [rat Gal (3-29)] returned an IC50 of over 1000 nM. For the same molecule, the “EC50, aequorin bioluminescence in 293-AEQ17 cells” value with human GALR2 [11] was over 10000 nM.
As to WTLNSAGYLLGPHAIDNHRSFSDKHGLT (peptide, UniProt P10683 34-61, looked up, range 2-29; also called rGAL(2-29)) [rat Gal (2-29)], the figures for the IC50 with rat GALR2 (clone 27A) [6] and with human GALR2 [10] were 2.9 nM and 15.4 nM, respectively. For the same molecule, the “EC50, aequorin bioluminescence in 293-AEQ17 cells” value with human GALR2 [11] came to 31 nM.
Regarding GWTLNSAGYLLGPHAIDNHRSFSDKHGLT (ends and bridges not checked) [rat galanin], in the experiment with human GALR2 [10], the IC50 came out at 1.6 nM.
For GWTLNSAGYLLGPHAVGNH (peptide, UniProt P22466 33-51, looked up, range 1-19; also called hGal (1-19)) [human Gal (1-19)], the IC50 with rat GALR1 [5] was determined as 0.86 nM.
